# Assay results: patent US20240101959A1, “USE OF IL-2R-BETA-GAMMA AGONIST PEPTIDES IN CELL MANUFACTURING” (MEDIKINE, INC., priority 2022, published 2024)
# Like-named read-outs stand apart in the source and are kept apart here.
# T1: hu-IL-2Rβ subunit (Homo sapiens, UniProt P14784)
# T1 sequence (P14784 27-551): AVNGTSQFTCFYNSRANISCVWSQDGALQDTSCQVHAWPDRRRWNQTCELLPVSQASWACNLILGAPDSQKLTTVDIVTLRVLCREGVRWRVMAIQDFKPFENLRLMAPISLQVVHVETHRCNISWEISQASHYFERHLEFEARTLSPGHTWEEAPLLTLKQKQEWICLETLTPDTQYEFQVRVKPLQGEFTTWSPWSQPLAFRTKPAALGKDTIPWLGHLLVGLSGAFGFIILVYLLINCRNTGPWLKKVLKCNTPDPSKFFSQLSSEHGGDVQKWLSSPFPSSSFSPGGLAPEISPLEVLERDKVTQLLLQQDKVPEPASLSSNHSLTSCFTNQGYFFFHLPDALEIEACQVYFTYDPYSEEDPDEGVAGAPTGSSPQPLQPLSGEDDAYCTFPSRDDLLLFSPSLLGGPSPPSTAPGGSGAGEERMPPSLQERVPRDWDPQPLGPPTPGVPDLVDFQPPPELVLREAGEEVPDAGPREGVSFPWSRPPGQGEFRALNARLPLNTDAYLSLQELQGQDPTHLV
# T2: IL-2Rβ (Homo sapiens, UniProt P14784)
# T2 sequence (P14784 27-551): T1 sequence (P14784 27-551)
# T3: hu-IL-2Rγc subunit (Homo sapiens, UniProt P31785)
# T3 sequence (P31785 23-369): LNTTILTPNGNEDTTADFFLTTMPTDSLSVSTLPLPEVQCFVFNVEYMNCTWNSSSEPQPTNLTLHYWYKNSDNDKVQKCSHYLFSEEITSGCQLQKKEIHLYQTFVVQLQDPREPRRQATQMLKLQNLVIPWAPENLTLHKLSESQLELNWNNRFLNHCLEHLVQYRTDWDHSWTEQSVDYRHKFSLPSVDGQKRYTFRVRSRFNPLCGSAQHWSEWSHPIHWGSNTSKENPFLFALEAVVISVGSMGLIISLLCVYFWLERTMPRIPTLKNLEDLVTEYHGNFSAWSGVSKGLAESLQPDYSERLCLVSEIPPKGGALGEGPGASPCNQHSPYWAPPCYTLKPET
# T4: hu-IL-2Rγc subunit (human, UniProt P31785 23-262, limits assumed)
# T4 sequence (looked up): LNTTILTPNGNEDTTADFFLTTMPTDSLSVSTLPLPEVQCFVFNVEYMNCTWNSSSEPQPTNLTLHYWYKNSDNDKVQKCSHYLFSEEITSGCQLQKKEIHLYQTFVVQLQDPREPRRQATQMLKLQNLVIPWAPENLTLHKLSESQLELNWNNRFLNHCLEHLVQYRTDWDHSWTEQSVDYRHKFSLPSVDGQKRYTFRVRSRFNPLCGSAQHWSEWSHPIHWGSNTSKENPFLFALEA
# T5: hu-IL-2Rγc subunit (human), P31785
# T5 chain: T4 sequence (looked up)
# Key:
# [1] = biological target: T1, hu-IL-2Rβ subunit; assay: competitive binding at the specific binding site on the hu-IL-2Rβ subunit
# Source text: This specific binding site on the hu-IL-2Rβ subunit to which the group of IL-2Rβ ligands bind can be characterized using competitive binding assays as described.
# [2] = biological target: T2, IL-2Rβ; assay: competition with IL-2 binding to IL-2Rβ
# [3] = biological target: T3, hu-IL-2Rγc subunit; assay: competitive binding at the specific binding site on the hu-IL-2Rγc subunit
# [4] = biological target: T4, hu-IL-2Rγc subunit
# [5] = biological target: T4, hu-IL-2Rγc subunit; assay: phage ELISA competition assay
# [6] = biological target: T5, hu-IL-2Rγc subunit (human), P31785
# [7] = biological target: T5, hu-IL-2Rγc subunit (human), P31785
competition with IL-2 binding to IL-2Rβ [2],IC50 [4] [µM],IC50 [5] [µM],Molecule,also measured
,,,R S C Y Y K R P R L W C S E (RSCYYKRPRLWCSE) [SEQ ID NO: 931],competition with the group of IL-2Rβ ligands for the specific binding site on the IL-2Rβ subunit [1]: does not compete
do not bind competitively,,,Y D C R I A Q V G E L C D L (YDCRIAQVGELCDL) [SEQ ID NO: 932],competition with the group of IL-2Rγc ligands (SEQ ID NO: 935-940) for the specific binding site on the hu-IL-2Rγc subunit [3]: does not compete
do not bind competitively,,,R W G D V G D L L M P L (RWGDVGDLLMPL) [SEQ ID NO: 934],
do not bind competitively,,,D C S M W E G V E L C W (DCSMWEGVELCW) [SEQ ID NO: 935],competition with the group of IL-2Rβ ligands for the specific binding site on the IL-2Rβ subunit [1]: does not compete
do not bind competitively,,,N M C L V G D Y W P S C Q I (NMCLVGDYWPSCQI) [SEQ ID NO: 933],
,,,S L L K C Y N A S T C A S V F (SLLKCYNASTCASVF) [SEQ ID NO: 723],competition with the group of IL-2Rγc ligands (SEQ ID NO: 935-940) for the specific binding site on the hu-IL-2Rγc subunit [3]: do not compete
,< 100,< 10,GYGVVCEDFRGVELCWLERK [SEQ ID NO 712],
,< 100,< 10,VGIECEEWAGVELCWL [SEQ ID NO 715],
,< 100,< 10,ILCEEWQGVELCWLEGGGS [SEQ ID NO 714],
,,,KVCEMWGGVLLCWN (modifications not checked) [SEQ ID NO 936],IC50 [6]: < 10 µM; IC50 [7]: < 100 µM
